Laboratory results: patent US20200283482A1, “BICYCLIC PEPTIDE LIGAND PRR-A CONJUGATES AND USES THEREOF” (BicycleRD Limited, priority 2017, published 2020)
Like-named read-outs stand apart in the source and are kept apart here. Starred links: 1 amine or outer side, 2 acyl side, 3 side chain; linkers in the order of their positions; H or OH if unused. Positions of bridges follow the written chain, without caps; N, C: chain ends. Non-standard residues stand in square brackets, D forms with d. Residues, ends and D or L forms follow the SMILES beside them. *: point of attachment. X11 = CCCOc1nc(NC(=O)OCc2ccc(NC(=O)[C@H](CCCNC(N)=O)NC(=O)[C@@H](NC(=O)Cn3cc(CCC(=O)*)nn3)C(C)C)cc2)c2[nH]c(=O)n(Cc3ccc(OCCN(C)C)nc3)c2n1; X3 = CCOCc1nc2c(NC(=O)OCc3ccc(NC(=O)[C@H](CCCNC(N)=O)NC(=O)[C@@H](NC(=O)Cn4cc(CCC(=O)*)nn4)C(C)C)cc3)nc3ccccc3c2n1CC(C)(C)O; X2 = CCOCc1nc2c(NC(=O)OCCSCC(=O)*)nc3ccccc3c2n1CC(C)(C)O; 1Nal = N[C@@H](Cc1cccc2ccccc12)C(=O)O; TBMB = c1c(C[*:1])cc(C[*:3])cc1C[*:2]; Tle = CC(C)(C)[C@H](N)C(=O)O; βAla = NCCC(=O)O; Sar = CNCC(=O)O

Tests used:
hemopexin domain of MT1 [1] = biological target: T1, hemopexin domain of MT1 (Homo sapiens, UniProt P50281); assay: Fluorescence polarization binding to MT1-MMP hemopexin domain; settings: read-out: apparent Kd
Experimental: Direct Binding Fluorescence Polarization or Anisotropy Assays are performed by titrating a constant concentration of fluorescent tracer (here, the fluoresceinated bicyclic peptide to be studied) with its binding partner (here, the MT1-MMP hemopexin domain). As the concentration of binding partner increases during the titration, the polarization signal changes in proportion to the fraction of bound and unbound material. This allows determination of […] (Kd) quantitatively. Assay data can be fit using standard ligand binding equations.
The titrant (binding partner) concentration is varied from 0.1 nM up to typically 5 μM. The range is chosen such that the maximum change in fluorescent polarization can be observed. Buffers employed are phosphate buffered saline in the presence of 0.01% Tween. Experiments were run in black 384 well low-bind/low volume plates (Corning 3820), and the fluorescent polarization signal was measured using a BMG Pherastar FS plate reader. […]
Here, a preformed complex of PEX with the fluorescent PEX-binding tracer is titrated with free, non-fluoresceinated bicyclic peptide. […] Dissociation of the complex can be measured quantitatively, and the Kd of the competitor (titrant) to the target protein determined. The advantage of the competition method is that the affinities of non-fluoresceinated bicyclic peptides can be determined accurately and rapidly. […]

hemopexin domain of MT1 [2] = biological target: T1, hemopexin domain of MT1; settings: MT1-MMP binder formed with TBMB scaffold, as described in WO 2016/067035; cited from earlier work
Plasma stability, human = format: in vitro ADME; settings: pH 7.4
Experimental: (§1) The pooled frozen mouse, rat, dog, monkey or human plasma is thawed in a water bath at 37° C. prior to experiment. Plasma is centrifuged at 4000 rpm for 5 min and the clots are removed if any. […] For positive controls, 100 μM intermediate solution is prepared by diluting 20 μL of the stock solution with 180 μL 45% MeOH/H2O. […] For compounds I-7 to […]-17, […]-22, and […]-33, at each time point (0, 1, 2, 4, 6 and 24 hr), reactions were stopped by removing the plates from water bath and 200 μL 20 mM NH4OAC mix well first and then adding 800 μL of ice-cold stop solution (200 ng/mL Labetalol, 200 ng/mL Tolbutamide, 500 ng/mL N6-Ben and 40 mM DBAA in 100% Methanol). […] Sample plates were vortexed immediately on a plate shaker at 800 rpm for 10 min and then centrifuged at 4,000 rpm for 10 min. An aliquot of supernatant (200 μL) is transferred from each well before submitting to LC-MS/MS analysis. The percentage of test compound remaining at the individual time points relative to the 0 hour sample is calculated using following equation: Percent Remaining=100×(PAR at appointed incubation time/PAR at T0 time) where PAR is the peak area ratio of analyte versus internal standard (IS).

Plasma stability, rat = format: in vitro ADME; settings: pH 7.4
Experimental: as §1

Plasma stability, cyno = format: in vitro ADME; settings: cynomolgus monkey, pH 7.4
Experimental: as §1

Plasma stability, dog = format: in vitro ADME; settings: pH 7.4
Experimental: as §1

Plasma stability, mouse = format: in vitro ADME; settings: pH 7.4
Experimental: as §1

Blood stability, mouse = format: in vitro ADME, CD-1 mouse; settings: male, CD-1, mouse
Experimental: CD-1 mouse blood (n≥2, male, fasted overnight) is collected from animals housed at an internal facility. (EDTA-K2 is used as anticoagulant)
The test compounds and positive control stock solutions are prepared to 10 mM in DMSO or ultrapure water. Control compounds bisacodyl, enalapril and propantheline known to be metabolised by blood are also incubated alongside each batch of test compounds I-7, I-22, I-24, I-25, I-27, and I-29 to I-33. The dosing solutions of test compounds and controls are prepared by diluting the stock solution with 45% MeOH/H2O to achieve 100 uM. Test compound solutions (final incubation concentration=2 μM) are incubated with blood (final DMSO concentration≤1%) at six different time points (0, 1, 2, 4, 6 and 24 hours) in duplicate (n=2). The reaction is terminated by adding 100 uL ultra-pure water, mixing well, then adding 800 uL of 100% methanol containing 200 ng/mL tolbutamide and 200 ng/mL labetalol as internal standards. Samples are then vortexed and centrifuged at 3200×g for 20 minutes. Following centrifugation, the concentration of test compound in the supernatant is determined semi-quantitatively by LC-MS/MS. The percentage of test compound remaining at the individual time points relative to the 0 hour sample is then reported. The percent remaining of test compound after incubation in blood is calculated using following equation: Percent Remaining=100×(PAR at appointed incubation time/PAR at T0 time) where PAR is the peak area ratio of analyte versus internal standard (IS).

[3] = Tumor localization after IV injection; format: in vivo; settings: mouse, mice bearing MT1-positive tumor xenografts, in less than 60 minutes, read-out: tumor localization level

C[C@H](NC(=O)CN(C)C(=O)CN(C)C(=O)CN(C)C(=O)CN(C)C(=O)CN(C)C(=O)CN(C)C(=O)CN(C)C(=O)CN(C)C(=O)CN(C)C(=O)CN(C)C(=O)CCN)C(=O)N[C@H]1CSCc2cc3cc(c2)CSC[C@H](NC(=O)[C@@H](C)NC(=O)[C@H](Cc2cccc4ccccc24)NC(=O)[C@H](CCC(=O)O)NC(=O)[C@H](CC(N)=O)NC(=O)[C@@H](C)NC1=O)C(=O)N[C@@H](CCC(=O)O)C(=O)N[C@@H](CC(=O)O)C(=O)N[C@@H](Cc1ccccc1)C(=O)N[C@@H](Cc1ccc(O)cc1)C(=O)N[C@@H](CC(=O)O)C(=O)N[C@@H](C(C)(C)C)C(=O)N[C@H](C(N)=O)CSC3 [N241] (H-[βAla][Sar][Sar][Sar][Sar][Sar][Sar][Sar][Sar][Sar][Sar]AC[dA]NE[1Nal][dA]CEDFYD[Tle]C-NH2; linker 13-19-26 via TBMB)
Kd (hemopexin domain of MT1 [1]): ~2 nM

βAla-Sar10-A-C(D-Ala)NE(1Nal)(D-Ala)CEDFYD(tBuGLy)C [17-69-07-N241]
Kd (hemopexin domain of MT1 [2]): 1.2 nM

CCOCc1nc2c(NC(=O)OCCSCC(=O)NCCC(=O)N(C)CC(=O)N(C)CC(=O)N(C)CC(=O)N(C)CC(=O)N(C)CC(=O)N(C)CC(=O)N(C)CC(=O)N(C)CC(=O)N(C)CC(=O)N(C)CC(=O)N[C@@H](C)C(=O)N[C@H]3CSCc4cc5cc(c4)CSC[C@H](NC(=O)[C@@H](C)NC(=O)[C@H](Cc4cccc6ccccc46)NC(=O)[C@H](CCC(=O)O)NC(=O)[C@H](CC(N)=O)NC(=O)[C@@H](C)NC3=O)C(=O)N[C@@H](CCC(=O)O)C(=O)N[C@@H](CC(=O)O)C(=O)N[C@@H](Cc3ccccc3)C(=O)N[C@@H](Cc3ccc(O)cc3)C(=O)N[C@@H](CC(=O)O)C(=O)N[C@@H](C(C)(C)C)C(=O)N[C@H](C(N)=O)CSC5)nc3ccccc3c2n1CC(C)(C)O [I-7] ({X2-βAla}-[Sar][Sar][Sar][Sar][Sar][Sar][Sar][Sar][Sar][Sar]AC[dA]NE[1Nal][dA]CEDFYD[Tle]C-NH2; linker 12-18-25 via TBMB)
half-life at 2 μM (Plasma stability, human; human, plasma): > 24 h | half-life at 2 μM (Plasma stability, rat; rat, plasma): 6 to 24 h | half-life at 2 μM (Plasma stability, cyno; plasma): > 24 h | half-life at 2 μM (Plasma stability, dog; dog, plasma): > 24 h | half-life at 2 μM (Plasma stability, mouse; mouse, plasma): 6 to 24 h | half-life at 2 μM (Blood stability, mouse): < 2 h

CCOCc1nc2c(NC(=O)OCc3ccc(NC(=O)[C@H](CCCNC(N)=O)NC(=O)[C@@H](NC(=O)Cn4cc(CCC(=O)NCCC(=O)N(C)CC(=O)N(C)CC(=O)N(C)CC(=O)N(C)CC(=O)N(C)CC(=O)N(C)CC(=O)N(C)CC(=O)N(C)CC(=O)N(C)CC(=O)N(C)CC(=O)N[C@@H](C)C(=O)N[C@H]5CSCc6cc7cc(c6)CSC[C@H](NC(=O)[C@@H](C)NC(=O)[C@H](Cc6cccc8ccccc68)NC(=O)[C@H](CCC(=O)O)NC(=O)[C@H](CC(N)=O)NC(=O)[C@@H](C)NC5=O)C(=O)N[C@@H](CCC(=O)O)C(=O)N[C@@H](CC(=O)O)C(=O)N[C@@H](Cc5ccccc5)C(=O)N[C@@H](Cc5ccc(O)cc5)C(=O)N[C@@H](CC(=O)O)C(=O)N[C@@H](C(C)(C)C)C(=O)N[C@H](C(N)=O)CSC7)nn4)C(C)C)cc3)nc3ccccc3c2n1CC(C)(C)O [I-22] ({X3-βAla}-[Sar][Sar][Sar][Sar][Sar][Sar][Sar][Sar][Sar][Sar]AC[dA]NE[1Nal][dA]CEDFYD[Tle]C-NH2; linker 12-18-25 via TBMB)
half-life at 2 μM (Plasma stability, human; human, plasma): > 24 h | half-life at 2 μM (Plasma stability, rat; rat, plasma): 2 to 6 h | half-life at 2 μM (Plasma stability, cyno; plasma): > 24 h | half-life at 2 μM (Plasma stability, dog; dog, plasma): > 24 h | half-life at 2 μM (Plasma stability, mouse; mouse, plasma): 2 to 6 h | half-life at 2 μM (Blood stability, mouse): < 2 h

C[C@H](NC(=O)CN(C)C(=O)CN(C)C(=O)CN(C)C(=O)CN(C)C(=O)CN(C)C(=O)CN(C)C(=O)CN(C)C(=O)CN(C)C(=O)CN(C)C(=O)CN(C)C(=O)CCN)C(=O)N[C@H]1CSCc2cc3cc(c2)CSC[C@H](NC(=O)[C@@H](C)NC(=O)[C@H](Cc2cccc4ccccc24)NC(=O)[C@H](CCC(=O)O)NC(=O)[C@H](CC(N)=O)NC(=O)[C@@H](C)NC1=O)C(=O)N[C@@H](CCC(=O)O)C(=O)N[C@@H](CC(=O)O)C(=O)N[C@@H](Cc1ccccc1)C(=O)N[C@@H](Cc1ccc(O)cc1)C(=O)N[C@@H](CC(=O)O)C(=O)N[C@@H](C(C)(C)C)C(=O)N[C@H](C(N)=O)CSC3 [^177Lu-loaded N241, metal not drawn] (H-[βAla][Sar][Sar][Sar][Sar][Sar][Sar][Sar][Sar][Sar][Sar]AC[dA]NE[1Nal][dA]CEDFYD[Tle]C-NH2; linker 13-19-26 via TBMB; N-terminus and C-terminus assumed)
tissue uptake [3]: 15 to 20 %ID/g

CCCOc1nc(NC(=O)OCc2ccc(NC(=O)[C@H](CCCNC(N)=O)NC(=O)[C@@H](NC(=O)Cn3cc(CCC(=O)NCCC(=O)N(C)CC(=O)N(C)CC(=O)N(C)CC(=O)N(C)CC(=O)N(C)CC(=O)N(C)CC(=O)N(C)CC(=O)N(C)CC(=O)N(C)CC(=O)N(C)CC(=O)N[C@@H](C)C(=O)N[C@H]4CSCc5cc6cc(c5)CSC[C@H](NC(=O)[C@@H](C)NC(=O)[C@H](Cc5cccc7ccccc57)NC(=O)[C@H](CCC(=O)O)NC(=O)[C@H](CC(N)=O)NC(=O)[C@@H](C)NC4=O)C(=O)N[C@@H](CCC(=O)O)C(=O)N[C@@H](CC(=O)O)C(=O)N[C@@H](Cc4ccccc4)C(=O)N[C@@H](Cc4ccc(O)cc4)C(=O)N[C@@H](CC(=O)O)C(=O)N[C@@H](C(C)(C)C)C(=O)N[C@H](C(N)=O)CSC6)nn3)C(C)C)cc2)c2[nH]c(=O)n(Cc3ccc(OCCN(C)C)nc3)c2n1 [I-18] ({X11-βAla}-[Sar][Sar][Sar][Sar][Sar][Sar][Sar][Sar][Sar][Sar]AC[dA]NE[1Nal][dA]CEDFYD[Tle]C-NH2; linker 12-18-25 via TBMB)
half-life at 2 μM (Plasma stability, human; human plasma, 2 μM, 37° C., read-out: T1/2 (human)): < 2 h | half-life at 2 μM (Plasma stability, rat; rat plasma, 2 μM, 37° C., read-out: T1/2 (rat)): < 2 h | half-life at 2 μM (Plasma stability, cyno; cyno plasma, 2 μM, 37° C., read-out: T1/2 (cyno)): < 2 h | half-life at 2 μM (Plasma stability, dog; dog plasma, 2 μM, 37° C., read-out: T1/2 (dog)): < 2 h | half-life at 2 μM (Plasma stability, mouse; mouse plasma, 2 μM, 37° C., read-out: T1/2 (mouse)): < 2 h
